Data on 23 sequences can be found in the DeepSol protein solubility set.

This series in a line: soluble on expression in E. coli; label from the status in PepcDB or PDB records.
With “MGLEKTVKEKLSFEGVGIHTGEYSKLIIHPEKEGTGIRFFKNGVYIPARHEFVVHTNHSTDLGFKGQRIKTVEHILSVLHLLEITNVTIEVIGNEIPILDGSGWEFYEAIRKNILNQNREIDYFVVEEPIIVEDEGRLIKAEPSDTLEVTYEGEFKNFLGRQKFTFVEGNEEEIVLARTFCFDWEIEHIKKVGLGKGGSLKNTLVLGKDKVYNPEGLRYENEPVRHKVFDLIGDLYLLGSPVKGKFYSFRGGHSLNVKLVKELAKKQKLTRDLPHLPSVQALLEHHHHHH”, the “soluble on expression in E. coli” value was “soluble”.
With “MGLIPPKWLERMVEAYRDPSLERAVYGEVLTRSDIERLLSETPLHPMAAAADYYARVIKKGVGSYIVNIYLAYTNVCVTRCTFCDFYVPPERRSSGYTHPPEHLGRVAGLARKRLGVREVHMVGGNDPELPLEYYEEAIREIKRVAPGVVLKAFTAEEIGFIAKATGNTPKEVLARFREAGLDALPGGGAEVLSEEVRKRIAPLKISSDEYLEIHRLAHSMGIRSNITLLYAHIEEPRHVAEHLYRIRRLQEETGGFISFIPIRFNPGKTPLSRHPEYVKKGDRGGLYDLRIVAASRLALLGAIDNIMAYWVSMGEKLAQAALSHGANDIGGTFYNESVISAASSLRKRKGMSPARLVFNIATAGWTPMERDTFYNYYPPRAEPPRLPWMQG” the entry was “not soluble”.
Take “MGLLPTDRWLEEDEGDPLRLCARLAPLFGKMPAREIYSYLRLYGMYRSTRQAERLLPEMKERRLWERLGRLYERQRGIWKGPDVPVFLLPADDENRKLVREFQGKGGVAFADKLFFFLLPDHCDEEIAALVAHEYNHVCRLKQLPNEGEDATLLDAVVMEGLAEHAVAETVGAEQCAGWTKYYTDREMERFWRRYIVPNQHLPVSHPHTSRILYGLGWHPKMGGYAVGYAIVRRCLERGCSLAQLMTMEAKDIAELAGFSGKQQGAS”: the “soluble on expression in E. coli” value is “not soluble”.
For “MGLNIGDLLGSTPAKDQGCSRTCESQFCTIAPLLRYGKYCGILYSGCPGERPCDALDACCMVHDHCVDTHNDDYLNTMCNENLLSCIDRVSGATFPGNKCNVGQTASVIRGVIETAVFAGKILHKRDDGQ”, the “soluble on expression in E. coli” value was “soluble”.
On to “MGLPCYHMQEVIMNKANKGHLDFWRKVANSPPGSQHDWNRVFANYTATVDNPGCCVWKELLAAYPDAKVLLTLHPRGAEAWYESTIDTIYFTENVWQFKILEWLTPFGWKFGDMSRKLIWGRTLDGVMNDRAKAVARYNTYVEQVKAAVPPHKLLVYKVTEGWAPLCDFLGLEHHHHHH”, for which the “soluble on expression in E. coli” value is listed as “not soluble”.
With “MGLQELDPLAQLSLPPGFRFYPTDEELMVEYLCRKAAGHDFSLQLIAEIDLYKFDPWVLPSKALFGEKEWYFFSPRDRKYPNGSRPNRVAGSGYWKATGTDKVISTEGRRVGIKKALVFYIGKAPKGTKTNWIMHEYRLIEPSRRNGSTKLDDWVLCRIYKKQTSAQKQAYNNLMTSGREYSNNGSSTSSSSHQYDDVLESLHEIDNRSLGFAAGSSNALPHSHRPVLTNHKTGFQGLAREPSFDWANLIGQNSVPELGLSHNVPSIRYGDGGTQQQTEGIPRFNNNSDVSANQGFSVDPVNGFGYSGQQSSGFGFI”, the “soluble on expression in E. coli” value is given as “soluble”.
With “MGNLICTKNGGEPEIMVAAHMDEIGFAVKYIDDKGFIRIAPIGGWFSQIALAQRVVLYGKKKVYGVIGCKPPHLMKDEERKKGIEIKDMFVDIGASSKEEVLEMGINVGTPVALDREIVELANGRITGKAFDNRVGVAVMIEAVRRAKADITIHAVATVQEEVGLKGARTSAFAIEPTAAIAVDTCVAADFPGSESAHMDVKLGKGAAITVIDASGRGLIASPKVLRWLTETAEKYGIPYQLEVAEGGTTDATAIHLTKAGIPAGVVSVPARYIHSPVEVVDLKDVESAVEIVARAIENAKNYF” the entry was “soluble”; with “MGNTMCPKMESAFSLLGKRWNGLIIHVLMDGPKRFKEITETIPMISQKMLAERLKELEQNEIVERQVLPETPVKVIYTLTEKGTALQAVFQEMQAWADQFCEPGDTVCEEEKLEHHHHHH”, “soluble”; with “MGPIVSPALHAVQASRFEDVRQARSATGTRTDEGLRRSAGGRYAGASSRGTYQSGAGRVTNPLRRSKVSESLSIHHDVGGHQFETTVDGHRAYLAYMDLGKQTLDIYRTFVPDSLRGRGIAAALTEHALQYADRMGYSVIPSCSYVERYIERRQRQADPAALEHHHHHH”, “soluble”.
As to “MGQEYYFCRCGRSKKQPYCDGSHSGTGMKPMSFTAEKDEDAYLCQCKHTANAPFCDGTLEHHHHHH”, the “soluble on expression in E. coli” value is “not soluble”.
As for “MGQNSSQIPEHELEHLSIESGLSRGGILKLYGRFISLATHRDKTTNEYFLTKGDFQSIAELKQNPLGDRIIDAFFADAEVLERRKVYFKDFVKVLSHFRPINKNKPHPWNSREAKLRFAFTMYDLNKSGTITKDEFQDILAMMIGVGVPKDQVNSIADRTMREADRDGDGFITFQEFCNAMEKTDIEQKMSFRFLT”, the “soluble on expression in E. coli” value is listed as “not soluble”.
Then “MGRGVYTLALRGLAPLIWLWMWRRARRAGGQWELFAPARFGRAGARAPAPLAAPVWVHAVSLGETRAAQPLVQALLERGLPVLLTHTTATGRAEGERLFGAAIGRGQLQQAWLPYDFPGATRRFLARHAPRCGLLIEREVWPNLLAAARAQGVPMALVSARFSASSLRQAGWLGQALREALAGLGRVLAQTDEDGARLCQAGANAYTVTGSLKFDVALPEAQLRVGHAWAGATGRPVIALASTREGEDAMFIEAIGALQAHRAATPRPLILLIPRHPQRFDEAAAQLQAAGLAYARRSAGSGEPGPHIDVLLGDTLGEMPFYYAAADVAIVGGSFARLGGQNLIEACAAGTPVIVGPHTFNFKDAARDAIAAGAALRAPDARTALDWALQLLAEPARRQAMSEAARAWTAAHAGATRRTLDALEDWLAPRLEHHHHHH”, with “soluble”; and “MGRKWANIVAKKTAKDGATSKIYAKFGVEIYAAAKQGEPDPELNTSLKFVIERAKQAQVPKHVIDKAIDKAKGGGDETFVQGRYEGFGPNGSMIIAETLTSNVNRTIANVRTIFNKKGGNIGAAGSVSYMFDNTGVIVFKGTDPDHIFEILLEAEVDVRDVTEEEGNIVIYTEPTDLHKGIAALKAAGITEFSTTELEMIAQSEVELSPEDLEIFEGLVDALEDDDDVQKVYHNVANL”, with “soluble”; and “MGRLGWVDPESFMQRNHELMDAYSAGKLAMEEFMAFSLEPMAGRTPEEVDHLVGPWVEDVIEPIIYSDACKCIAQHRAKGDRILVISASGVHLVKPIAERLGIDEVLGIELDVQHGVYSGATVGVLTYREGKITRLMEWLDAEGENLEGASFYSDSRNDLPLLLKVDHPNVVNPDPVLLEHAQQAGWPVHTWV”, with “not soluble”.
With “MGRSSRKDEILQAALACFSEHGVDATTIEMIRDRSGASIGSLYHHFGNKERIHGELYLAGIGQYAALLEAGFARARSAEETVRLLVTSYIDWVVANPDWARFILHSRGRVEAGELGERLRADNQAHFARIHAALAGYRAEGLFREMPDDCFASVVIGPAHDLARQWLAGRTRVALADCRELLAQVAWDSVRAA”, the “soluble on expression in E. coli” value is “not soluble”.
For the sequence “MGSDKIHHHHHHADNPVVQTLYTTDPAPMVYNGTCYLYTGHDEDGSTWYTMKDWRCYSSTDMVNWTDNGSPLAYNTFSWAKGDAWAGQCIPRNGKFYYYVPVTQKSGGMAIGVAVSNSPTGPFVDALGHPLAYTGTGDIDPTVFIDNDGQAYLYWGNPNLYYVKLNQDMISYSGKIVQVPLTTAGFGVRKGNSSRPTLYEEGPWFYKRNGMYYMVYAAGGIPEYISYSTSKSPTGPWYYKGVIMPSQGRSFTNHPGVIDFKGNSYFFYHNGALPGGSGFTRSVCIEQFKYNADGTFPTINMTTTGVSGIGNLNPYTQNEAETICWESNVKTEKCSEGGMDVCNIQNNSWIKVKGVNFDSGAASFNARVASATNGGNIELHLDSPSGTLIGTCHVNSTGGWQSWVTNSCNVSGAKGIHDLYLKFTGGNGYLFNVNWWKFNGTKTVSTR”, the “soluble on expression in E. coli” value is reported as “not soluble”.
As to “MGSDKIHHHHHHAGTQTAQTQALDSDGIPTGGEWITMFDGKTLNGWRGYCRQDVPLGWVVEDGSITYKGSDNKADTGFGDLIYDKKFKNFVFEIEWKIDKAGNSGIFYTAQEIEGTPIYYSSPEYQLLDNENMPDAWEGCDGNRQAGAVYDMIMPDPQPVKPYGNWNKTRIVVYNQRVIHYMNDVKILEFQFGTPVWRALVDHSKFSKFSTSPEKCPEAYDLMLQCGKQPGYIGMQDHGYGVCFRNIRIKEL”, the “soluble on expression in E. coli” value was “not soluble”.
Regarding “MGSDKIHHHHHHANNDEWVTCPPGGILAIGTMKIPNADTPRDFFIALDNGDNVLPADTADIRNRKYTVAEGQRVFVGYLQMGKEKPGYENGKIFTIEDILTKEIIPLTEATADSIGDDRINVTAHALTKDYLTIEYQYLGSMNENKKHMLNLVQNEITGPIKDDGYIYLEFRHNAFNDSPNQLGSSLVSFKLDSIAEQLATAKGIKLRVNTIYDNIQYVTIDINEDKNLKIKSFHSQ”, the “soluble on expression in E. coli” value was “not soluble”.
Consider “MGSDKIHHHHHHANNFGITYSLPKTSLVVDAEVTKVTCKAGPYYQYAEKYLGVKDAVTEDKIYFDLGKISLINRGLPDADNTYIVEFKQGTVAPYAYLTEDGLLCSINAEYTPVESELDAAKKNKGSQQKVTDTSVFSEELLMAGSTAKQAEVAAKQIYRIRESRLNILTGEADNLPPDGEAMKLVIQQLEEQEKALTNLFTGILTKETEHYEVSIIPHDNLDKEVLFRFSKQLGIVDADDLGGTPVYMNLKATERAPILDAKEAEKKDKSLKGIVYNVPGKASIEILMNKKTLYKGEAQITQFGTREGLAPVMFEDKKAPVKVLFYPETGAIKQIIQ”, for which the “soluble on expression in E. coli” value was “not soluble”.
With “MGSDKIHHHHHHAPGQTAQPGRPPTQPQGWSMTVGLAPVYGMAWQGSKDTALSIFPDLRVNYKDALFLSVPEGLGWNAVNANGWKAGPLLKARFGRNEDDGGSPFQIAGGSDALRGMGDIGIAGEAGAFVEKRFGTRQQWRARAEVRQGFGGHEGIVGDISLNWSGRTGRTILSAGPRATFASREYMQTYFGVDAVQASRTGLAASRLGGGLVSYGLGASIVQPLDRRRAVTVFGGADRLGGEPAGSSLIRERGQRTQFVVGVGYGFRFGL” the entry was “not soluble”; with “MGSDKIHHHHHHAPLPQAPIPAPSMSLPGFHAPPPSTSNGTVASGAVRTQPARMPFYVATKGKVTIYVLGTLHVGDPADYPANQPFRRPILAALAASPTLALELSPDDLLESQDDVSKYGVCNYACLPRLLPPPLWQKLANRLRGNPAALAGIRNMRPWLASLVVETYDSLSAGLQTEYGTEAQLQNVFLRKKGGKVVGLETLAEQMRAFTGLTLAQQREMLAQDMVQTPAQNAADVRALHRLWRIGDADAIAAWANAKTERLARARSIADSIDNKIVYERNRRFVARMTAIAAPNRPLFVAIGSLHLGGPKGVLELLRQQGYRVDAG”, “not soluble”; with “MGSDKIHHHHHHAQIKFRNHSVSVVSLNYDASNKTMLFRQGEEMMEMTNPAQVDTVIIGKRKFVPVGRGFYEVVCRKEGVVYIDWLLKDVNIGSKGALGTVTQGSVKNLQMSDLGLNGTEMYTPYERQKIGSTEVYRRKNDNTYYIKVEGKLEKVKSLKHLEKIFIGHKDEIRKFAKDHKIDMKDILDVFSILDYCMELEQ”, “not soluble”.
For “MGSDKIHHHHHHAQLSDNGYANVDWQFNAPLKNHFADKASGWGMNFEGGYFVTPNLGLGLFMNYSSNHEYFPRATFPVGEGTVNTDQQHTIFQLPFGAAARYQMNRGGAWQPYFGVKLGANYAKVRSNYNMFETRDNTWGFYVSPEIGLNVYPWAYGPGLHIAVYYSYATNKANVLTYNVDKLNNFGFRVGLAF”, the “soluble on expression in E. coli” value is “not soluble”.
